B1: Cytoplasmic FMR1-interacting protein 1 (Homo sapiens), Q7L576 (parent)
chain: MAAQVTLEDALSNVDLLEELPLPDQQPCIEPPPSSLLYQPNFNTNFEDRNAFVTGIARYIEQATVHSSMNEMLEEGQEYAVMLYTWRSCSRAIPQVKCNEQPNRVEIYEKTVEVLEPEVTKLMNFMYFQRNAIERFCGEVRRLCHAERRKDFVSEAYLITLGKFINMFAVLDELKNMKCSVKNDHSAYKRAAQFLRKMADPQSIQESQNLSMFLANHNKITQSLQQQLEVISGYEELLADIVNLCVDYYENRMYLTPSEKHMLLKVMGFGLYLMDGSVSNIYKLDAKKRINLSKIDKYFKQLQVVPLFGDMQIELARYIKTSAHYEENKSRWTCTSSGSSPQYNICEQMIQIREDHMRFISELARYSNSEVVTGSGRQEAQKTDAEYRKLFDLALQGLQLLSQWSAHVMEVYSWKLVHPTDKYSNKDCPDSAEEYERATRYNYTSEEKFALVEVIAMIKGLQVLMGRMESVFNHAIRHTVYAALQDFSQVTLREPLRQAIKKKKNVIQSVLQAIRKTVCDWETGHEPFNDPALRGEKDPKSGFDIKVPRRAVGPSSTQLYMVRTMLESLIADKSGSKKTLRSSLEGPTILDIEKFHRESFFYTHLINFSETLQQCCDLSQLWFREFFLELTMGRRIQFPIEMSMPWILTDHILETKEASMMEYVLYSLDLYNDSAHYALTRFNKQFLYDEIEAEVNLCFDQFVYKLADQIFAYYKVMAGSLLLDKRLRSECKNQGATIHLPPSNRYETLLKQRHVQLLGRSIDLNRLITQRVSAAMYKSLELAIGRFESEDLTSIVELDGLLEINRMTHKLLSRYLTLDGFDAMFREANHNVSAPYGRITLHVFWELNYDFLPNYCYNGSTNRFVRTVLPFSQEFQRDKQPNAQPQYLHGSKALNLAYSSIYGSYRNFVGPPHFQVICRLLGYQGIAVVMEELLKVVKSLLQGTILQYVKTLMEVMPKICRLPRHEYGSPGILEFFHHQLKDIVEYAELKTVCFQNLREVGNAILFCLLIEQSLSLEEVCDLLHAAPFQNILPRVHVKEGERLDAKMKRLESKYAPLHLVPLIERLGTPQQIAIAREGDLLTKERLCCGLSMFEVILTRIRSFLDDPIWRGPLPSNGVMHVDECVEFHRLWSAMQFVYCIPVGTHEFTVEQCFGDGLHWAGCMIIVLLGQQRRFAVLDFCYHLLKVQKHDGKDEIIKNVPLKKMVERIRKFQILNDEIITILDKYLKSGDGEGTPVEHVRCFQPPIHQSLASS

Variants of: B1
Details: with if4e_human EIF4E

Row | Variant | effect of a mutation on the interaction
1 | D724A;R726A | decreasing interaction
2 | K725E | decreasing interaction
